Assay results: FireProtDB (doi:10.1006/jmbi.1993.1508)

B1: Ribonuclease, P00648 (parent)
chain: MMKMEGIALKKRLSWISVCLLVLVSAAGMLFSTAAKTETSSHKAHTEAQVINTFDGVADYLQTYHKLPDNYITKSEAQALGWVASKGNLADVAPGKSIGGDIFSNREGKLPGKSGRTWREADINYTSGFRNSDRILYSSDWLIYKTTDHYQTFTKIR

Variants of: B1
Conditions: Bacillus amyloliquefaciens; pH 6.3; 25 °C; Urea; Fluorescence; MES 50 mM; reversible: yes; structure 1BNI; whole UniProt chain shown

Variant | ddG of mutation (higher = less stable) [kcal/mol] | denaturant m value [kcal/mol/M] | denaturant midpoint (higher = more stable) [M] | unfolding free energy [kcal/mol]
Q78S | -0.28 | 2.05 | 4.4 | 9.1
T126V | -0.18 | 1.91 | 4.7 | 9
K155R | -0.78 | 1.91 | 5 | 9.6
H65K | 0.92 | 2 | 3.9 | 7.9
Q62I T63R K66R | -1.98 | 2 | 5.42 | 10.8
I135L | 0.02 | 1.98 | 4.4 | 8.8
Q62I | -1.38 | 2.02 | 5 | 10.2
K66R | -0.88 | 2.08 | 4.6 | 9.7
I102V | 0.32 | 1.93 | 4.4 | 8.5
K109R | 0.02 | 2.04 | 4.3 | 8.8
T63R | -0.78 | 1.98 | 4.8 | 9.6
Q62I T63R K66R G112S K113A K155R | -2.98 | 1.86 | 6.34 | 11.8
S132A | -0.28 | 2.02 | 4.51 | 9.1
D91E | 0.32 | 1.84 | 4.6 | 8.5
L136V | 0.32 | 1.92 | 4.4 | 8.5
G112S | -0.98 | 2.03 | 4.8 | 9.8
K113A | -0.98 | 2.09 | 4.7 | 9.8
Q151A | 0.02 | 1.98 | 4.4 | 8.8
